Test results from US20160083466A1.

Target: human IL-25 expressed with a C-terminal myc-myc-hexahistidine tag (human)
Assay: competition ELISA, 2 nM hIL-25-MMH binding to coated hIL-17RB-hFc; IC50 cell printed 'Non-blocker'

Sequence of human IL-25 expressed with a C-terminal myc-myc-hexahistidine tag (human) (chain, as listed by the source): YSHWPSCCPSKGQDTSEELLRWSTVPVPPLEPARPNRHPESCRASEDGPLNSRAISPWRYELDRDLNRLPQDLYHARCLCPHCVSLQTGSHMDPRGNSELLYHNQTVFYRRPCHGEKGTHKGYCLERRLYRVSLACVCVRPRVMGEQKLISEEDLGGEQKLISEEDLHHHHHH

% Maximum blocking of 200 nM antibody [%] | Substance
-45 | mIgG2a isotype control (antibody)
-31 | hIgG4 isotype control (antibody)
